# Source: publication PMC12421860
# Tests used:
# [1] = molecular target: PorN, subunit of the purified PorKN ring (Porphyromonas gingivalis (endogenous in P. gingivalis)); experiment: cryo-EM structure; PorKN rings purified from P. gingivalis through the twin strep tag on PorK (Strep-Tactin, 0.5% Triton X-100); single and double rings; whole rings at 7.4 Å (single) and 5.6 Å (double) with 33-fold symmetry; focused refinement of a segment in C1 to 3.2 Å
# [2] = molecular target: PorK with a C-terminal twin strep tag (PorK-Strep), subunit of the purified PorKN ring (Porphyromonas gingivalis); experiment: as above
Substance,stoichiometry N [1],stoichiometry N [2]
"PorN, subunit of the purified PorKN ring (natural protein)",33,–
"PorK with a C-terminal twin strep tag (PorK-Strep), subunit of the purified PorKN ring (natural protein)",–,33
